Test [1] deals with T1, human NGAL (C87S) produced in E. coli, NGAL(+)mut8 (human, UniProt P80188 21-198, 15N/2H or 13C/15N isotope label (NMR, Example 8); BHQ-10S quencher label (KD titrations, Example 9)).
T1 construct: also called BHQ-NGAL; isotope-labeled human NGAL
T1 chain: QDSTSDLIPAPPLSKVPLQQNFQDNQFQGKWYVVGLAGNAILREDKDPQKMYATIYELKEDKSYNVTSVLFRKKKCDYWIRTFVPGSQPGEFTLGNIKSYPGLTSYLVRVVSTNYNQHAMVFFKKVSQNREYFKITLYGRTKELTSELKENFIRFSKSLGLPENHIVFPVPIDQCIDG
Description: DC-FCCS sandwich formation in solution; second antibody mAb 2322. How it is done: (§1) Samples were placed in a 96-microwell optical bottom plate (Nalge Nunc International, Rochester, N.Y.). The excitation wavelength was set at 810 nm, 3 mW on the sample. Sampling rate was set at 200 KHz and 10 million points were collected for each measurement. Each sample was measured twice. Experiments were performed on each sample after one-hour incubation.
(§2) Labeled antibodies were mixed at equal concentration (40 μL of 10 nM mAbs) and ligand (15 nM NGAL) was added to the solution. Cross-correlation curves before and after adding NGAL were calculated from the data sets acquired in each channel and the data were normalized.
(§3) For illustration purposes, a relative number was assigned to each antibody pair, which, in fact, is the ratio of Gx(0) values before and after the addition of NGAL to the antibodies (Table 13). All ratio values were corrected for the background. A value of “1” indicates no sandwich formation, values between 1.1 and 2.5 indicate a poor sandwich formation, and all values above 2.6 indicate productive antibody pairing.

Test [2] concerns the target T1, human NGAL (C87S) produced in E. coli, …. Put plainly: fluorescence quenching titration in solution: ALEXA 488-labelled mAb at 0.05 nM, BHQ-labelled NGAL varied, fraction bound against free BHQ-NGAL. How it is done: The equilibrium dissociation constants (KD) of NGAL and six anti-NGAL antibodies were measured in direct binding experiments. […] After 30 minutes incubation, all samples were measured on an SLM 8100 photon counting spectrofluorimeter. Samples were excited at 480 nm, and the emission was collected through a 530 nm (30 nm bandwidth) interference filter (Chroma Technology Corp., Rockingham, Vt.). All binding measurements were performed in 10 mM HEPES buffer, pH 7.4, containing 0.15 M NaCl, 3 mM EDTA, and 0.005% surfactant P20.
where Ligandₜₒₜₐₗ and ABSₜₒₜₐₗ are the BHQ-NGAL concentration and total antibody binding sites, respectively, and Fbound is the fraction of bound antibody sites. The binding data were fitted with a simple binding model to obtain the equilibrium dissociation constant (KD) according to equation [4]: […]

The target in test [3] is T2, human NGAL antigen (Neutrophil Gelatinase Associated Lipocalin) (human, UniProt P80188 21-198, biotin label in the hybridoma EIAs).
T2 construct: also called NGAL-Bt; biotin labeled NGAL
Put plainly: SPR (BIAcore): mAb captured on anti-mouse Fc, 100 nM NGAL. How it is done: Using BIAcore, NGAL hybrid supernatants are evaluated for relative binding affinity to NGAL and grouped accordingly in NGAL binding epitope groups. The affinity assay was completed on a goat anti-mouse IgG Fc Capture Biosensor as follows. Flow cells were first equilibrated with a running buffer (hereinafter “Running Buffer”) that contains HBS-EP buffer spiked with 0.1% BSA and 0.1% CM-Dextran), at 10 μL/min. Next, 13 μL of supernatant was floated across individual flow cells capturing anti-NGAL antibody from the supernatant onto the biosensor, and with one flow cell being left blank as a reference flow cell. The flow cells then were washed for 5 minutes at 50 μL/min with Running Buffer, and 150 μL of NGAL antigen at a 100 nM concentration was injected across the chip followed by 5 minutes of Running Buffer. The relative binding kinetics, association and dissociation, were monitored via sensorgrams. The sensorgrams were analyzed using Scrubber 2.0 software (BioLogic Software Pty Ltd., Australia) to determine association and dissociation rates, as well as overall KD.
(SPR reads the build-up and loss of mass on a sensor chip optically.)

Test [4] addresses T1, human NGAL (C87S) produced in E. coli, …. Put plainly: DC-FCCS sandwich formation in solution; second antibody mAb 903. How it is done:
as §1, §2, §3

The target in test [5] is T3, Wild-type NGAL rAg (CHO clone #662) (human, UniProt P80188 21-198, glycosylated (CHO)).
T3 construct: also called NGAL wild-type antigen; wild-type NGAL rAg CHO 662
Put plainly: KinExA, IgG in solution. How it is done: (§4) The amount of free binding sites was determined by injecting the antibody/human NGAL reaction mixture over human NGAL immobilized on solid-phase Polymethyl-methacrylate (PMMA) beads. The free anti-NGAL antibody bound to the human NGAL coated beads were subsequently detected using the fluorescent CY5-conjugated goat anti-mouse polyclonal antibody (GAM-Cy5). The degree of GAM-Cy5 bound was proportional to the amount of anti-NGAL IgG bound to the human NGAL-coated beads. The KD was determined by analyzing the amount of free binding sites versus the amount of antigen present in the reaction sample using software provided by the manufacturer (Sapidyne Instruments, Boise, Id.). Experiments were performed in a PBS, pH 7.4, and 1% BSA reaction diluent.
Background: Kinetic exclusion samples the free partner from a solution-phase mixture.

Test [6] deals with T4, Mutant C87S NGAL rAg (CHO cell clone #734) (human, UniProt P80188 21-198, glycosylated (CHO)).
T4 construct: also called NGAL mutant C87S antigen; mutant C87S NGAL rAg CHO 734
T4 chain: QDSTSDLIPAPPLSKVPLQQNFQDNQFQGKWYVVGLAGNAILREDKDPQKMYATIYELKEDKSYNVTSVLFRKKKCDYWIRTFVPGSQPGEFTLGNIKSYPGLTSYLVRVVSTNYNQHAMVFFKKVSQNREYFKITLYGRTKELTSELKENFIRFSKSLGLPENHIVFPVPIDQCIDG
Put plainly: KinExA, IgG in solution. The procedure: as §4

For test [7], the target named is T5, wild-type NGAL antigen displayed on yeast (AGA2 fusion) (human, UniProt P80188 21-198).
T5 construct: also called WT
Put plainly: flow cytometry, mAb titrated on yeast displaying NGAL. How it is done:
The side chain of each of the NGAL rAg residues identified from the epitope selections was altered by site-directed mutagenesis to alanine to confirm the functional epitope (direct contact residues) of each NGAL mAb subclone.
The change in Gibbs free binding energy (ΔΔG_Ala-WT) was determined to assess the energetic impact of each alanine substitution for mAb binding. The change in Gibbs free binding energy upon alanine substitution was calculated using the following equation [2],
For these experiments, observed fluorescence (F) was used to solve for KD using equation [1]. The KD derived from equation [1] one was then used in equation [2] to derive the change in Gibbs free binding energy upon alanine substitution. The KD is read from the abscissa of each of the curves at the inflection point.
For orientation: Flow cytometry measures light scatter and fluorescence of single cells or particles in a stream.

Experimental findings from patent US20090263894A1 (AbbVie / Abbott, published 2009) are described below.

B1: anti-NGAL monoclonal antibody 1-903-430 (antibody, V domains shown)
VH: KIQLVQSGPELKKPGETVKISCKASGYTFTNYGMNWVKQAPGKGLKWMGWININTGEPTYAEEFKGRFAFSLETSATTAFLQINNLKNEDTATYLCARDSYSGGFDYWGQGTIVTVSS
VL: DIVMTQSPSSLSVSAGEKVTLSCKSSQSLLISGDQKNYLAWYQQKPGQPPKLLIYGASTRDSGVPDRFTGSGSGADFTLTISSVQAEDLAVYYCQNDHSFPPTFGAGTKLELKR
With B1, the “ratio of Gx(0) before and after adding NGAL” value (“ratio” below) in test [1] was 3.7. In test [2], the “EC50 (read off the curve)” value was approximately 1 nM. In test [3], the Kd was determined as 1.01 nM, the koff turned out to be 0.000272 s⁻¹ and the kon was 269000 M⁻¹ s⁻¹. The “ratio” value in test [4] amounted to 1. The molecule also showed a Kd in test [5] of 0.32 nM. The Kd in test [6] came out at 1.1 nM. Moreover, in test [7], binding was put at a Kd of 0.204 nM, the “ΔKD (KD against KD of WT)” value worked out at 1 fold and the “ΔΔG Ala-WT” value was 0 kcal/mol.

B2: anti-NGAL monoclonal antibody 1-2322-455 (antibody, V domains shown)
VH: EVQLVESGGGLVQPGGSLKLSCAASGFTFNNYYMSWVRQTPERRLEWVAYISSSGGSTYYSDSVRGRFTISRDTARNTLYLQMTSLKSEDTAMYYCARHFGDYSYFDYWGQGTTLTVSS
VL: DIQMTQSPASLSASVGETVTITCRASENFYSYLAWYQQKQGKSPQLLVYNAKTLAEGVPSRFSGSGSGTQFSLKINSLQPEDFGTYYCQHHYDIPLTFGAGTKLELKR
For the molecule B2, the “ratio” value in test [1] worked out at 0.7. In addition, the “EC50 (read off the curve)” value in test [2] was approximately 0.06 nM. In test [3], this molecule showed a Kd of 0.155 nM, a koff of 7.28e-05 s⁻¹ and a kon of 468000 M⁻¹ s⁻¹. In test [4], the “ratio” value worked out at 3.5. The molecule also returned a Kd in test [5] of 0.024 nM. The dissociation constant Kd in test [6] stood at 0.023 nM. In test [7], the Kd was 0.0081 nM, the “ΔKD (KD against KD of WT)” value was determined as 1 fold and the “ΔΔG Ala-WT” value turned out to be 0 kcal/mol.

For orientation: EC50 (read off the curve) means the concentration at which the effect is half-maximal. The low end stands for higher potency in that assay, the high end for lower potency in that assay. Broadly, the Kd is a measure of binding affinity in units of concentration. Low values mean tighter binding, high ones weaker binding. One may read the koff as a measure of how fast the partners let go of each other. Low values mean slow dissociation, high ones fast dissociation. As a reminder, the kon is the rate constant with which the complex forms. Low readings indicate slower complex formation, high ones faster complex formation.
